# B1: Beta-arrestin-2 (Homo sapiens), P32121-4 (parent)
# chain: MGEKPGTRVFKKSSPNCKLTVYLGKRDFVDHLDKVDPVDGVVLVDPDYLKDRKVFVTLTCAFRYGREDLDVLGLSFRKDLFIATYQAFPPVPNPPRPPTRLQDRLLRKLGQHAHPFFFTVRMPLPSEGQGAGAGTVSGVGIPQNLPCSVTLQPGPEDTGKACGVDFEIRAFCAKSLEEKSHKRNSVRLVIRKVQFAPEKPGPQPSAETTRHFLMSDRSLHLEASLDKELYYHGEPLNVNVHVTNNSTKTVKKIKVSVRQYADICLFSTAQYKCPVAQLEQDDQVSPSSTFCKVYTITPLLSDNREKRGLALDGKLKHEDTNLASSTIVKEGANKEVLGILVSYRVKVKLVVSRGGDVSVELPFVLMHPKPHDHIPLPRPQSAAPETDVPVDTNLIEFDTNYATDDDIVFEDFARLRLKGMKDDDYDDQLC
# B2: Receptor tyrosine-protein kinase erbB-4 (Homo sapiens), Q15303 (parent)
# chain: MKPATGLWVWVSLLVAAGTVQPSDSQSVCAGTENKLSSLSDLEQQYRALRKYYENCEVVMGNLEITSIEHNRDLSFLRSVREVTGYVLVALNQFRYLPLENLRIIRGTKLYEDRYALAIFLNYRKDGNFGLQELGLKNLTEILNGGVYVDQNKFLCYADTIHWQDIVRNPWPSNLTLVSTNGSSGCGRCHKSCTGRCWGPTENHCQTLTRTVCAEQCDGRCYGPYVSDCCHRECAGGCSGPKDTDCFACMNFNDSGACVTQCPQTFVYNPTTFQLEHNFNAKYTYGAFCVKKCPHNFVVDSSSCVRACPSSKMEVEENGIKMCKPCTDICPKACDGIGTGSLMSAQTVDSSNIDKFINCTKINGNLIFLVTGIHGDPYNAIEAIDPEKLNVFRTVREITGFLNIQSWPPNMTDFSVFSNLVTIGGRVLYSGLSLLILKQQGITSLQFQSLKEISAGNIYITDNSNLCYYHTINWTTLFSTINQRIVIRDNRKAENCTAEGMVCNHLCSSDGCWGPGPDQCLSCRRFSRGRICIESCNLYDGEFREFENGSICVECDPQCEKMEDGLLTCHGPGPDNCTKCSHFKDGPNCVEKCPDGLQGANSFIFKYADPDRECHPCHPNCTQGCNGPTSHDCIYYPWTGHSTLPQHARTPLIAAGVIGGLFILVIVGLTFAVYVRRKSIKKKRALRRFLETELVEPLTPSGTAPNQAQLRILKETELKRVKVLGSGAFGTVYKGIWVPEGETVKIPVAIKILNETTGPKANVEFMDEALIMASMDHPHLVRLLGVCLSPTIQLVTQLMPHGCLLEYVHEHKDNIGSQLLLNWCVQIAKGMMYLEERRLVHRDLAARNVLVKSPNHVKITDFGLARLLEGDEKEYNADGGKMPIKWMALECIHYRKFTHQSDVWSYGVTIWELMTFGGKPYDGIPTREIPDLLEKGERLPQPPICTIDVYMVMVKCWMIDADSRPKFKELAAEFSRMARDPQRYLVIQGDDRMKLPSPNDSKFFQNLLDEEDLEDMMDAEEYLVPQAFNIPPPIYTSRARIDSNRSEIGHSPPPAYTPMSGNQFVYRDGGFAAEQGVSVPYRAPTSTIPEAPVAQGATAEIFDDSCCNGTLRKPVAPHVQEDSSTQRYSADPTVFAPERSPRGELDEEGYMTPMRDKPKQEYLNPVEENPFVSRRKNGDLQALDNPEYHNASNGPPKAEDEYVNEPLYLNTFANTLGKAEYLKNNILSMPEKAKKAFDNPDYWNHSLPPRSTLQHPDYLQEYSTKYFYKQNGRIRPIVAENPEYLSEFSLKPGTVLPPPPYRHRNTVV
# partner: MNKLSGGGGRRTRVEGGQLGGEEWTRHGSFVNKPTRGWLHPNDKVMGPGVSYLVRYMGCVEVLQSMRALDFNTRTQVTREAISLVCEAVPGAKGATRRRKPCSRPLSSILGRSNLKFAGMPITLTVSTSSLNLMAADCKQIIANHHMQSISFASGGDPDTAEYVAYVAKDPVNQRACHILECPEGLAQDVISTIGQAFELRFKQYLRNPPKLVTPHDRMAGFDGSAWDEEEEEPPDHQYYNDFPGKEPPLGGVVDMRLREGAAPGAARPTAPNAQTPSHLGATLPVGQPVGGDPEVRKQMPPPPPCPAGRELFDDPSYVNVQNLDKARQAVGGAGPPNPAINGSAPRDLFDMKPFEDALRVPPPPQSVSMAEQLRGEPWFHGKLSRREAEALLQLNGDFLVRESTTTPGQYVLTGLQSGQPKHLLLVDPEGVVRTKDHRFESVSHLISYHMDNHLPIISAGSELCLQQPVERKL
# Variants of: B1
# Details: with adrb2_human ADRB2, P07550
row,Variant,effect of a mutation on the interaction
1,MGEKPGTRVFKKSSPNCKLTVYLGKRDFVDHLDKVDPVDGVVLVDPDYLKDRKVFVTLTCAFRYGREDLDVLGLSFRKDLFIATYQAFPPVPNPPRPPTRLQDRLLRKLGQHAHPFFFTVRMPLPSEGQGAGAGTVSGVGIPQNLPCSVTLQPGPEDTGKACGVDFEIEAFCAKSLEEKSHKRNSVRLVIRKVQFAPEKPGPQPSAETTRHFLMSDRSLHLEASLDKELYYHGEPLNVNVHVTNNSTKTVKKIKVSVRQYADICLFSTAQYKCPVAQLEQDDQVSPSSTFCKVYTITPLLSDNREKRGLALDGKLKHEDTNLASSTIVKEGANKEVLGILVSYRVKVKLVVSRGGDVSVELPFVLMHPKPHDHIPLPRPQSAAPETDVPVDTNLIEFDTNYATDDDIVFEDFARLRLKGMKDDDYDDQLC [R169E],decreasing interaction strength

# Variants of: B2
# Details: with SHC1, P29353-7
row,Variant,effect of a mutation on the interaction
1,E542K,increasing interaction strength
2,E872K,increasing interaction strength
